Test results taken from paper PMC3419727, “Identifying the Hotspots on the Top Faces of WD40-Repeat Proteins from Their Primary Sequences by β-Bulges and DHSW Tetrads” (PLoS ONE, 2012).
Where a chain is given by its changes, count along the chain named. Where “and” joins values, the source holds several entries; their conditions need not be identical. Equal entries are not always repeated.

Legend:
[1] = target: T1, S. japonicus Tup11 WD40 domain (amino acids 301–630), wild type (S. japonicus, UniProt B6JV84 301-630); assay: ITC
T1 chain: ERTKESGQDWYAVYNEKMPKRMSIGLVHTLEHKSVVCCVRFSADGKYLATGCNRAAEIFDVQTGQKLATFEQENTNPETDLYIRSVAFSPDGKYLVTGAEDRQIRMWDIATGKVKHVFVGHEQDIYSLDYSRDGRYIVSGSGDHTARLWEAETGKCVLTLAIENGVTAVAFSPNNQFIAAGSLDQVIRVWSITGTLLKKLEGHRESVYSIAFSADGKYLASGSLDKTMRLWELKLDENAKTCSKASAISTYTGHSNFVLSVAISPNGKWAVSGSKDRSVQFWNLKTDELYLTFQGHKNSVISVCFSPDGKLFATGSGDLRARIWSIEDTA

[2] = target: T2, S. japonicus Tup11 WD40 domain (301–630) Leu524Ala (S. japonicus, UniProt B6JV84 301-630, Leu524Ala); assay: ITC; Fep1 (~1.4 mM) injected, 2 µl each time, into Tup11 WT or mutant (~0.2 mM); 25°C; 1×PBS pH 7.4, 150 mM NaCl; iTC200 (MicroCal); Fep1 into buffer subtracted as background; settings: both partners purified
T2 construct: Tup11, S. japonicus, WD40 domain, amino acids 301-630
T2 sequence (looked up): T1 chain with L224A

[3] = target: T3, S. japonicus Tup11 WD40 domain (301–630) Cys337Ala (S. japonicus, UniProt B6JV84 301-630, Cys337 substituted by Ala); assay: as above; settings: both partners purified
T3 construct: Tup11, S. japonicus, WD40 domain, amino acids 301-630; also called Cyc337
T3 sequence (looked up): T1 chain with C37A

[4] = target: T4, S. japonicus Tup11 WD40 domain (301–630) Tyr508Ala (S. japonicus, UniProt B6JV84 301-630, Tyr508 substituted by Ala); assay: as above; settings: both partners purified
T4 construct: Tup11, S. japonicus, WD40 domain, amino acids 301-630
T4 sequence (looked up): T1 chain with Y208A

[5] = target: T5, S. japonicus Tup11 WD40 domain (301–630) Lys575Ala (S. japonicus, UniProt B6JV84 301-630, Lys575Ala); assay: as above; settings: both partners purified
T5 construct: Tup11, S. japonicus, WD40 domain, amino acids 301-630
T5 sequence (looked up): T1 chain with K275A

[6] = target: Leu524Ala at D-1 and Phe557Ala at R1-2; assay: as above
[7] = target: The remained five residues (Ala substitutions at R1 positions of Tup11); assay: as above

B1: C-terminal region of S. pombe Fep1 (amino acids 319–564) (domain or fragment, UniProt Q10134 319-564, looked up)
chain: AAGEPDNNGKVYYSYGPTQEQSILPLPENKHEGLPPYQNEYVPNGIRANQVVYPGQLVAVGNDSSKQLSESTTSNTDNNGVATANQSNPLGMKFHLPPILPVGESVCLPPRTSAKPRIAEGIASLLNPEEPPSNSDKQPSMSNGPKSEVSPSQSQQAPLIQSSTSPVSLQFPPEVQGSNVDKRNYALNVLSQLRSQHDLMIQELHNLNQHIQQIDEWLRSSDNENMASEHIKSSTPAVVASGALQT
notes: Fep1, GATA-factor, S. pombe, C-terminal region, amino acids 319-564
Ka [1]: 70000 M⁻¹ | binding result [2]: binds | binding result [3]: binds | binding result [4]: binds | reduction of binding free energy against wild type [5]: ~1.9 kcal/mol | reduction of binding free energy against wild type [6]: 0.5 kcal/mol and 0.8 kcal/mol | reduction of binding free energy against wild type [7]: 1 kcal/mol and 1.5 kcal/mol
